Test results as given in patent US20200338203A1 (Bicycle, published 2020).
Numbered stars: 1 amine (or outer) side, 2 acyl side, 3 side chain; on linkers, the order of the positions; unused ones are H or OH. Bridge positions count the residues as written; N and C are the ends. Square brackets hold non-standard residues; d marks the D form. Ends that are not written are not given here. Dip = N[C@H](C(=O)O)C(c1ccccc1)c1ccccc1; 1Nal = N[C@@H](Cc1cccc2ccccc12)C(=O)O; TBMB = c1c(C[*:1])cc(C[*:3])cc1C[*:2]; Ala(cPr) = N[C@@H](CC1CC1)C(=O)O; hArg = N=C(N)NCCCC[C@H](N)C(=O)O; Gly(cPr) = N[C@H](C(=O)O)C1CC1; Cba = N[C@@H](CC1CCC1)C(=O)O; Tle = CC(C)(C)[C@H](N)C(=O)O; Aib = CC(C)(N)C(=O)O; Sar = CNCC(=O)O

B1: Compound 138 (peptide)
peptide: [Sar][Sar]ACP[1Nal]GPFWCP[Tle]N[hArg][Aib]GC
modifications: linker 4-11-18 via TBMB
B2: Compound 112 (peptide)
peptide: [Sar][Sar]ACPWGPFWCPVNRP[dA]C
modifications: linker 4-11-18 via TBMB
B3: Compound 162 (peptide)
peptide: Ac-[Sar][Sar]A[dD][Gly(cPr)]TCPWGPFWCPVNRPGC
modifications: linker 7-14-21 via TBMB
B4: Compound 161 (peptide)
peptide: Ac-[Sar][Sar]A[dD][Ala(cPr)]TCPWGPFWCPVNRPGC
modifications: linker 7-14-21 via TBMB
B5: Compound 151 (peptide)
peptide: ADVHCPWAPFWCPVNRPGCA
modifications: linker 5-12-19 via TBMB
B6: Compound 152 (peptide)
peptide: ADVHCPWGAFWCPVNRPGCA
modifications: linker 5-12-19 via TBMB
B7: Compound 150 (peptide)
peptide: ADVHCP[1Nal]GPFWCPVNRPGCA
modifications: linker 5-12-19 via TBMB
B8: Compound 172 (peptide)
peptide: Ac-[Sar][Sar]A[dD]VTCPWGPNWCPVNRPGC
modifications: linker 7-14-21 via TBMB
B9: Compound 173 (peptide)
peptide: Ac-[Sar][Sar]A[dD]VTCPWGPAWCPVNRPGC
modifications: linker 7-14-21 via TBMB
B10: Compound 174 (peptide)
peptide: Ac-[Sar][Sar]A[dD]VTCPWGPFWCPLNRPGC
modifications: linker 7-14-21 via TBMB
B11: Compound 156 (peptide)
peptide: ADVHCPWGPFWCPVN[dA]PGCA
modifications: linker 5-12-19 via TBMB
B12: Compound 155 (peptide)
peptide: ADVHCPWGPFWCPV[dA]RPGCA
modifications: linker 5-12-19 via TBMB
B13: Compound 153 (peptide)
peptide: ADVHCPWG[Aib]FWCPVNRPGCA
modifications: linker 5-12-19 via TBMB
B14: Compound 164 (peptide)
peptide: Ac-[Sar][Sar]AD[Tle]TCPWGPFWCPVNRPGC
modifications: linker 7-14-21 via TBMB
B15: Compound 130 (peptide)
peptide: [Sar][Sar]ACP[1Nal]GPFWCP[Tle]N[hArg]PGC
modifications: linker 4-11-18 via TBMB
B16: Compound 159 (peptide)
peptide: Ac-[Sar][Sar]A[dD][dD]TCPWGPFWCPVNRPGC
modifications: linker 7-14-21 via TBMB
B17: Compound 149 (peptide)
peptide: ADVHCP[Dip]GPFWCPVNRPGCA
modifications: linker 5-12-19 via TBMB
B18: Compound 148 (peptide)
peptide: Ac-[Sar][Sar]ADVHCPWGPFWCPVNRPGC
modifications: linker 7-14-21 via TBMB
B19: Compound 157 (peptide)
peptide: Ac-[Sar][Sar]ADVTCPWGPFWCPVNRPGC
modifications: linker 7-14-21 via TBMB
B20: Compound 160 (peptide)
peptide: Ac-[Sar][Sar]A[dD][Cba]TCPWGPFWCPVNRPGC
modifications: linker 7-14-21 via TBMB

Molecular target: T1, Human EphA2 (Ecto) (Human, UniProt P29317 24-537)
T1 construct: extracellular domain
T1 sequence (P29317 24-537): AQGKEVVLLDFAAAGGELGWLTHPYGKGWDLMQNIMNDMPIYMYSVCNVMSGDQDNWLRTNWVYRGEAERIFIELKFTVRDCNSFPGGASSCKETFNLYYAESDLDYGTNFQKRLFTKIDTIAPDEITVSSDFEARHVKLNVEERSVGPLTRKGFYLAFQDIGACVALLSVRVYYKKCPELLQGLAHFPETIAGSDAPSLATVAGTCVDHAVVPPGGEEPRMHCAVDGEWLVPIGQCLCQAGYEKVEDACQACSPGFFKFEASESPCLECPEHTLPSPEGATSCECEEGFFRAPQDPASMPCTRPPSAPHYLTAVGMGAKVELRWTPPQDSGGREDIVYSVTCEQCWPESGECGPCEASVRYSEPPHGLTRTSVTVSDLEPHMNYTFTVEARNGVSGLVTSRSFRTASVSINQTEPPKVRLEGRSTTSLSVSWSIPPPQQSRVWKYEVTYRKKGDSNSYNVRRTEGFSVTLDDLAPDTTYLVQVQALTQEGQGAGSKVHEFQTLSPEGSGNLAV
Assay: FP competition; competitor Compound 18
Method: Peptides without a fluorescent tag were tested in competition with a peptide with a fluorescent tag and a known Kd (Table 2). Peptides were diluted to an appropriate concentration in assay buffer as described in the direct binding assay with a maximum of 5% DMSO, then serially diluted 1 in 2. Five μL of diluted peptide was added to the plate followed by 10 μL of human or mouse EphA2 (Table 1) at a fixed concentration which was dependent on the fluorescent peptide used (Table 2), then 10 μL fluorescent peptide added. Measurements were conducted as for the direct binding assay, however the gain was determined prior to the first measurement.

Ki	Binder
5.1 nM	B1
89 nM	B2
2.55 nM	B3
4.44 nM	B4
394 nM	B5
1.8 nM	B6
0.12 nM	B7
3.96 nM	B8
6.69 nM	B9
9.1 nM	B10
14.9 nM	B11
2 nM	B12
0.51 nM	B13
2.25 nM	B14
0.29 nM	B15
2.85 nM	B16
52.8 nM	B17
1.2 nM	B18
0.91 nM	B19
2.6 nM	B20
